Consider eight molecules from publication PMC8646926 (Advanced Biology, 2021).

Like-named read-outs stand apart in the source and are kept apart here.

Experiment [1] addresses T1, SARS-CoV-2 Nsp9, wild type, purified recombinant (SARS-CoV-2, UniProt P0DTD1).
The target of experiment [2] is T1, SARS-CoV-2 Nsp9, wild type, purified …. Nature of the experiment: far-Western, overlay or dot blot. The following applies: both partners purified.
For experiment [3] the target is unchanged. Description: NMR titration. To be noted: both partners purified.

B1: 2INS64 (VHH)
VHH: QVQLQESGGGLVQVGGSLRLSCAASGSILSINAMGWYRQAPGKQRELVAAITSGGSTNYADSVKGRFTISRDNAKNMLYLQMNSLKPEDTAVYYCHVVTGWGPLDWGQGTQVTVSS
On to B1, for which, in experiment [1], the binding result is “binds”.

B2: 3NSP78 (VHH)
VHH: QVQLQESGGGLVQAGGSLRLSCAASGRAFSSYVMGWFRQAPGKEREFVAAIHWTGAATVYVDSVKGRFAISRHNAKNTVYLEMNSLKPEDTAVYYCAADPSGSYWPPKRYDYWGQGTQVTVSS
B2: the binding result in experiment [1] is recorded as “binds”.

B3: nanobody 2NSP23 (VHH)
VHH: QVQLQESGGGLVQPGGSLRLSCAASGLAFSMYTMGWFRQAPGKEREFVAMIISSGDSTDYADSVKGRFTISRDNGKNTVYLQMDSLKPEDTAVYYCAAPKFRYYFSTSPGDFDSWGQGTQVTVSS
Turning to B3, the binding result in experiment [2] is on record as “binds”.

B4: 2INS45 (VHH)
VHH: QVQLQESGGGLVQAGGSLRLSCAASGFTLSSNDMGWYRQAPGKQRELVATITSGLSTNYADSVKGRFTISRDNAKNTVFLQMNSLKIEDTAVYYCEVERGWGPPRDYWGHGTQVTVSS
Regarding B4, the binding result in experiment [1] is given as “binds”.

B5: 2INS27 (VHH)
VHH: QVQLQESGGGLVQAGGSLRLSCATSGSIFSSAVMGWYRQAPGNERELVALIGSSDTTDYSNSVKGRFTISRDNAKNTAYLRMNSLKPEDTAVYYCTAVKYGLGGFVYWGQGTQVTVSS
For the molecule B5, in experiment [1], the binding result is “binds”.

B6: 2INS69 (VHH)
VHH: QVQLQESGGGLVRAGDSLRLSCAVSGRTFSSVAMGWFRQAPGKEREFVAFISGSTGSVTYYADSVKGRFAISRDNAKNTVYLQMNSLKPEDTAVYDCAAKFTGTFNYQGLYDYWGQGTQVTVSS
B6: the binding result in experiment [1] was “binds”.

B7: 3NSP52 (VHH)
VHH: QVQLQESGGGLVQPEGSLRLSCAASGLTFDSYAIGWFRQAPGKEREFVAASIWSGDSGHYTGSVKGRFTISRDNAKNTVDLQMNSLKPEDTAVYYCAASASFLHSANYHMRAKWGYWGQGTQVTVSS
With B7, the binding result in experiment [1] is “binds”.

B8: nanobody 2NSP90 (VHH)
VHH: QVQLQESGGGLVQTGDSLRLSCAVSGRTFSTYSVGWFRQAPGKEREFVALRWSGGTTYYADSVVGRFTVSRDNAKNTVYLEMNSLKPEDTAVYYCAADRGSGSYSPTYRWDYWGQGTQVTVSS
A word on the stoichiometry N: it is the number of molecules, sites or subunits per partner or assembly. B8: in experiment [3], the “stoichiometry N” value was 3 to 4.
